From publication PMC8514426 (Nature Communications, 2021)

What was measured:
[1] = biological target: purified YibK protein with R146C (21.6 kDa monomer) (UniProt P44868); test: SDS-PAGE without reducing agent and Western blot (disulfide-linked dimer); purified YibK protein, no reducing agent
two-hybrid = biological target: the molecule itself; test: two-hybrid

Molecule | stoichiometry N [1] | fold P_cadBA transcriptional activation over cytoplasmic YibK–SH2 (two-hybrid) [fold]
purified YibK protein with R146C (21.6 kDa monomer) (from UniProt P44868) (natural protein) | 2 | 
wild-type YibK–SH2 (expressed as SS–YibK–SH2) (natural protein, also called WT; not shown: SH2 domain of ABL1 kinase, C-terminal, kept) MLDIVLYEPEIPQNTGNIIRLCANTGFRLHLIEPLGFTWDDKRLRRSGLDYHEFAEIKRHKTFEAFLESEKPKRLFALTTKGCPAHSQVKFKLGDYLMFGPETRGIPMSILNEMPMEQKIRIPMTANSRSMNLSNSVAVTVYEAWRQLGYKGAVNLPEVK |  | 66
